The values that follow come from patent US20220088146A1, “Melanocortin Receptor-Specific Peptide Formulations and Methods for Gastrointestinal Tract-Specific Delivery” (Palatin Technologies, Inc., priority 2018, published 2022).

Bridge positions count the residues as written; N and C are the ends. Square brackets hold non-standard residues; d marks the D form. Nle = CCCC[C@H](N)C(=O)O; Dab = NCC[C@H](N)C(=O)O; Dap = NC[C@H](N)C(=O)O

First the molecules themselves.
B1: Ac-Nle-cyclo(Glu-His-D-Phe-Arg-Dab)-Ala-NH2 (peptide)
peptide: Ac-[Nle]EH[dF]R[Dab]A-NH2
modifications: lactam 2-6
B2: Ac-Nle-cyclo(Asp-His-D-Phe-Arg-Dap)-Trp-NH2 (peptide)
peptide: Ac-[Nle]DH[dF]R[Dap]W-NH2
modifications: lactam 2-6
SMILES: CCCC[C@H](NC(C)=O)C(=O)N[C@H]1CC(=O)NC[C@@H](C(=O)N[C@@H](Cc2c[nH]c3ccccc23)C(N)=O)NC(=O)[C@H](CCCNC(=N)N)NC(=O)[C@@H](Cc2ccccc2)NC(=O)[C@H](Cc2c[nH]cn2)NC1=O
B3: Ac-Nle-cyclo(Glu-His-D-Phe-Arg-Dab)-Lys-NH2 (peptide)
peptide: Ac-[Nle]EH[dF]R[Dab]K-NH2
modifications: lactam 2-6
SMILES: CCCC[C@H](NC(C)=O)C(=O)N[C@H]1CCC(=O)NCC[C@@H](C(=O)N[C@@H](CCCCN)C(N)=O)NC(=O)[C@H](CCCNC(=N)N)NC(=O)[C@@H](Cc2ccccc2)NC(=O)[C@H](Cc2c[nH]cn2)NC1=O
B4: Ac-Nle-cyclo(Glu-Pro-D-Phe-Arg-Dab)-Trp-NH2 (peptide)
peptide: Ac-[Nle]EP[dF]R[Dab]W-NH2
modifications: lactam 2-6
SMILES: CCCC[C@H](NC(C)=O)C(=O)N[C@H]1CCC(=O)NCC[C@@H](C(=O)N[C@@H](Cc2c[nH]c3ccccc23)C(N)=O)NC(=O)[C@H](CCCNC(=N)N)NC(=O)[C@@H](Cc2ccccc2)NC(=O)[C@@H]2CCCN2C1=O
B5: Ac-Nle-cyclo(Glu-His-D-Phe-Ala-Dab)-Trp-NH2 (peptide)
peptide: Ac-[Nle]EH[dF]A[Dab]W-NH2
modifications: lactam 2-6
SMILES: CCCC[C@H](NC(C)=O)C(=O)N[C@H]1CCC(=O)NCC[C@@H](C(=O)N[C@@H](Cc2c[nH]c3ccccc23)C(N)=O)NC(=O)[C@H](C)NC(=O)[C@@H](Cc2ccccc2)NC(=O)[C@H](Cc2c[nH]cn2)NC1=O
B6: Ac-Nle-cyclo(Glu-His-D-Phe-Gly-Dab)-Trp-NH2 (peptide)
peptide: Ac-[Nle]EH[dF]G[Dab]W-NH2
modifications: lactam 2-6
SMILES: CCCC[C@H](NC(C)=O)C(=O)N[C@H]1CCC(=O)NCC[C@@H](C(=O)N[C@@H](Cc2c[nH]c3ccccc23)C(N)=O)NC(=O)CNC(=O)[C@@H](Cc2ccccc2)NC(=O)[C@H](Cc2c[nH]cn2)NC1=O

The target in one test is human melanocortin-1 receptor (human) (UniProt Q01726). Nature of the test: cell-based or functional assay.
human melanocortin-1 receptor (human), sequence (Q01726 whole entry): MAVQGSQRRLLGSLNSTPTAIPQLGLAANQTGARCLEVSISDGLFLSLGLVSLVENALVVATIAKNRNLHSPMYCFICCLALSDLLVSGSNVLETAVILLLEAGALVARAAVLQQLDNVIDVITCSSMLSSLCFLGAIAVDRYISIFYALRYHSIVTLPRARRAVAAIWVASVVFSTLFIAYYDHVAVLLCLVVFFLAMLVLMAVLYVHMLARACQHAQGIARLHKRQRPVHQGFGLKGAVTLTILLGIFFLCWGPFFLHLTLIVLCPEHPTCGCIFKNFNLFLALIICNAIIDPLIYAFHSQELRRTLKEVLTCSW
Turning to B1, the MC-1 EC50 (average; cAMP HBL) is 0.08 nM and the MC-1 Emax (average; cAMP HBL) was determined as 97%.
B2 yielded an MC-1 EC50 (average; cAMP HBL) of 0.195 nM and an MC-1 Emax (average; cAMP HBL) of 88%.
For B3 the same measures were 0.175 nM and 91%.
In the same order, the values of B4 are 0.18 nM and 97%.
For B5 the same measures were 0.115 nM and 72%.
In turn, B6 registered an MC-1 EC50 (average; cAMP HBL) of 4 nM and an MC-1 Emax (average; cAMP HBL) of 59%.

The next test shares this target. Nature of the test: [I125]-NDP-α-MSH competition, hMC1r HEK-293 membranes.
Take B1: the Ki came to 2 nM.
The same measure, in the same setting: for B2 the value was 2 nM; for B3, 2 nM.
Still for that read-out and setting: for B4 the value was 3 nM; for B5, 0.8 nM; for B6, 9 nM.

Another test deals with human melanocortin-4 receptor (human) (UniProt P32245). Nature of the test: [I125]-NDP-α-MSH competition, hMC4r HEK-293 membranes.
human melanocortin-4 receptor (human), sequence (P32245 whole entry): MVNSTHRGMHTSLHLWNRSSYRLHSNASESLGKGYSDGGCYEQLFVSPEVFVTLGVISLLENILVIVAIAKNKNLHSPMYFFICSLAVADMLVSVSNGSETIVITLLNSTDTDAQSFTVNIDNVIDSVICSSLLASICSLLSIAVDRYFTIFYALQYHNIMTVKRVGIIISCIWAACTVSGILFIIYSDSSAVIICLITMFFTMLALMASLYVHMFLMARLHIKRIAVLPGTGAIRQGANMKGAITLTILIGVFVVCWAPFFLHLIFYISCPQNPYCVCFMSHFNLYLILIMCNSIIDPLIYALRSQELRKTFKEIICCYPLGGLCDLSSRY
Turning to B1, the Ki amounted to 7480 nM.
The same measure, in the same setting: the value for B2 was 1320 nM.
The same measure, in the same setting: the value for B3 was 7380 nM.
In the case of B4, the Ki came to 185 nM.
Still for that read-out and setting: for B5 the value was 10000 nM; for B6, 10000 nM.

One may read the Ki as the dissociation constant of the complex between target and ligand, obtained from inhibition or displacement.
